These results are taken from patent publication US20230192896A1 (BIOVERATIV THERAPEUTICS, published 2023).

One assay concerns the target T1, FIXa-SM (FIXa+EGR-CMK) (human, UniProt P00740 47-191; P00740 227-461, EGR-CMK (L-Glu-Gly-Arg chloromethyl ketone) covalently bound to the active site).
T1 construct: BLI antigen bought from Haematologic Technologies (HCIXA-EGR); also called FIXa with substrate mimic
In words: BLI; class meaning: paragraph 914.

In assay [1] the target is T2, free FIXa (activated Factor IX) (human, UniProt P00740 47-191; P00740 227-461).
T2 construct: BLI antigen bought from Haematologic Technologies (HCIXA-0050); also called factor IXa
As to the kind of experiment: BLI; class meaning: paragraph 914. (In BLI a coated tip is dipped into the sample, and binding shifts an interference pattern.)

B1: BIIB-9-451 (antibody, V domains shown)
VH: QLQLQESGPGLVKPSETLSLTCTVSGGSISSSSYYWGWIRQPPGKGLEWIGSISYSGSTYYNPSLKSRVTISVDTSKNQFSLKLSSVTAADTAVYYCARDSGGYYYQGFDYWGQGTLVTVSS
VL: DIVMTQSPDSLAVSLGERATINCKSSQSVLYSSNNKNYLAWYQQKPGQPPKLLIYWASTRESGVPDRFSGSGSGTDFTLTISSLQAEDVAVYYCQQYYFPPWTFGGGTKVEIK
notes: IgG
On to B1, for which, in the assay with FIXa-SM (FIXa+EGR-CMK), the binding result is on record as “binds”.

B2: BIIB-9-629 (antibody, V domains shown)
VH: QVQLVQSGAEVKKPGASVKVSCKASGYTFTSYYMHWVRQAPGQGLEWMGVINPSGGSTSYAQKFQGRVTMTRDTSTSTVYMELSSLRSEDTAVYYCARDPSQDYATGTGWFDPWGQGTLVTVSS
VL: DIQLTQSPSSLSASVGDRVTITCQASQDISNYLNWYQQKPGKAPKLLIYDASNLETGVPSRFSGSGSGTDFTFTISSLQPEDIATYYCQQLDSLPPTFGGGTKVEIK
notes: IgG
On to B2, for which the binding result in assay [1] is on record as “binds”.

B3: BIIB-9-883 (antibody, V domains shown)
VH: QVQLVQSGAEVKKPGASVKVSCKASGYTFTSYYMHWVRQAPGQGLEWMGIINPSGGSTSYAQKFQGRVTMTRDTSTSTVYMELSSLRSEDTAVYYCARDGRLSYTWDRWGQGTLVTVSS
VL: DIQMTQSPSSLSASVGDRVTITCQASQDITNYLNWYQQKPGKAPKLLIYDASNLETGVPSRFSGSGSGTDFTFTISSLQPEDIATYYCQQADHFPFTFGGGTKVEIK
notes: IgG
Turning to B3, in the assay with FIXa-SM (FIXa+EGR-CMK), the binding result was “binds”.

B4: BIIB-9-469 (antibody, V domains shown)
VH: QVQLVQSGAEVKKPGASVKVSCKASGYTFTSYYMHWVRQAPGQGLEWMGIINPSGGSTSYAQKFQGRVTMTRDTSTSTVYMELSSLRSEDTAVYYCARDLGYGRSYDFDLWGRGTLVTVSS
VL: EIVMTQSPATLSVSPGERATLSCRASQSVSSNLAWYQQKPGQAPRLLIFGASTRATGIPARFSGSGSGTEFTLTISSLQSEDFAVYYCQQSNNFPFTFGGGTKVEIK
notes: IgG
On to B4, for which, in the assay with FIXa-SM (FIXa+EGR-CMK), the binding result is recorded as “binds”.

B5: BIIB-9-588 (antibody, V domains shown)
VH: QVQLVQSGAEVKKPGASVKVSCKASGYTFTSYYMHWVRQAPGQGLEWMGIINPSGGSTTYAQKFQGRVTMTRDTSTSTVYMELSSLRSEDTAVYYCARDGGGSYDYWSGYWYDVWGQGTTVTVSS
VL: EIVMTQSPATLSVSPGERATLSCRASQSVSSNLAWYQQKPGQAPRLLIYGASTRATGIPARFSGSGSGTEFTLTISSLQSEDFAVYYCQQAYNWPFTFGGGTKVEIK
notes: IgG
With B5, the binding result with FIXa-SM (FIXa+EGR-CMK) was “binds”.

B6: BIIB-9-611 (antibody, V domains shown)
VH: QVQLVQSGAEVKKPGASVKVSCKASGYTFTSYYMHWVRQAPGQGLEWMGIINPSGGSTSYAQKFQGRVTMTRDTSTSTVYMELSSLRSEDTAVYYCAREVISRVSYFDLWGRGTLVTVSS
VL: EIVMTQSPATLSVSPGERATLSCRASQSVSSNLAWYQQKPGQAPRLLIYGASTRATGIPARFSGSGSGTEFTLTISSLQSEDFAVYYCQQDNIHPYTFGGGTKVEIK
notes: IgG
B6: the binding result with FIXa-SM (FIXa+EGR-CMK) is reported as “binds”.

B7: BIIB-9-416 (antibody, V domains shown)
VH: QVQLVQSGAEVKKPGASVKVSCKASGYTFTSYYMHWVRQAPGQGLEWMGIINPSGGSTSYAQKFQGRVTMTRDTSTSTVYMELSSLRSEDTAVYYCAREGPMLDYPTYSNWFDPWGQGTLVTVS
VL: EIVMTQSPATLSLSPGERATLSCRASQSVSSYLAWYQQKPGQAPRLLIYDSSNRATGIPARFSGSGSGTDFTLTISSLEPEDFAVYYCQQRVVWPPTFGGGTKVEIK
notes: IgG
Consider B7, for which the binding result in assay [1] is reported as “binds”.

B8: BIIB-9-565 (antibody, V domains shown)
VH: QLQLQESGPGLVKPSETLSLTCTVSGGSISSSSYYWGWIRQPPGKGLEWIGSIYYSGSTYYNPSLKSRVTISVDTSKNQFSLKLSSVTAADTAVYYCARAGMYSSYANWFDPWGQGTLVTVSS
VL: EIVLTQSPATLSLSPGERATLSCRASQSVSSYLAWYQQKPGQAPRLLIYDASNRATGIPARFSGSGSGTDFTLTISSLEPEDFAVYYCQQDSNLPFTFGGGTKVEIK
notes: IgG
Regarding B8, in the assay with FIXa-SM (FIXa+EGR-CMK), the binding result is on record as “binds”.

B9: BIIB-9-619 (antibody, V domains shown)
VH: QVQLVQSGAEVKKPGASVKVSCKASGYTFTSYYMHWVRQAPGQGLEWMGIINPSGGSTSYAQKFQGRVTMTRDTSTSTVYMELSSLRSEDTAVYYCARDGPRVSDYYMDVWGKGTTVTVSS
VL: EIVLTQSPATLSLSPGERATLSCRASQSVSSYLAWYQQKPGQAPRLLIYDASNRATGIPARFSGSGSGTDFTLTISSLEPEDFAVYYCQQRDNWPFTFGGGTKVEIK
notes: IgG
In the case of B9, in the assay with FIXa-SM (FIXa+EGR-CMK), the binding result is on record as “binds”.

B10: BIIB-9-419 (antibody, V domains shown)
VH: QVQLVQSGAEVKKPGASVKVSCKASGYTFTSYYMHWVRQAPGQGLEWMGIINPSGGSTSYAQKFQGRVTMTRDTSTSTVYMELSSLRSEDTAVYYCAREPTFYASYFDLWGRGTLVTVS
VL: EIVMTQSPATLSLSPGERATLSCRASQSVSSYLAWYQQKPGQAPRLLIYDSSNRATGIPARFSGSGSGTDFTLTISSLEPEDFAVYYCQQVSTHPYTFGGGTKVEIK
notes: IgG
On to B10, for which, in the assay with FIXa-SM (FIXa+EGR-CMK), the binding result is “binds”.

B11: BIIB-9-473 (antibody, V domains shown)
VH: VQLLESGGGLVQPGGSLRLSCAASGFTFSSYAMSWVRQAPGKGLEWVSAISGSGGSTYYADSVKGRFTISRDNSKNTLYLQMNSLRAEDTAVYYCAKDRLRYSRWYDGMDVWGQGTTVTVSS
VL: EIVLTQSPATLSLSPGERATLSCRASQSVSSYLAWYQQKPGQAPRLLIYDASNRATGIPARFSGSGSGTDFTLTISSLEPEDFAVYYCQQRSFLPYTFGGGTKVEIK
notes: IgG
In the case of B11, in the assay with FIXa-SM (FIXa+EGR-CMK), the binding result is listed as “binds”.

B12: BIIB-9-626 (antibody, V domains shown)
VH: QVQLVQSGAEVKKPGASVKVSCKASGYTFTSYYMHWVRQAPGQGLEWMGVINPSGGSTSYAQKFQGRVTMTRDTSTSTVYMELSSLRSEDTAVYYCARDLQYSMTYFDYWGQGTLVTVSS
VL: DIQMTQSPSTLSASVGDRVTITCRASQSISSWLAWYQQKPGKAPKLLIYKASSLESGVPSRFSGSGSGTEFTLTISSLQPDDFATYYCQQDGSYPPLTFGGGTKVEIK
notes: IgG
Regarding B12, the binding result in the assay with FIXa-SM (FIXa+EGR-CMK) is “binds”.

B13: BIIB-9-567 (antibody, V domains shown)
VH: QVQLVQSGAEVKKPGASVKVSCKASGYTFTSYYMHWVRQAPGQGLEWMGIINPSGGSTSYAQKFQGRVTMTRDTSTSTVYMELSSLRSEDTAVYYCARLGRRYYAYDGMDVWGQGTTVTVSS
VL: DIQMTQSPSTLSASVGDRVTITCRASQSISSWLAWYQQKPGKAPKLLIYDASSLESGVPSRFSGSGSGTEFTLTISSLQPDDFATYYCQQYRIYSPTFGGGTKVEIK
notes: IgG
Take B13: the binding result with FIXa-SM (FIXa+EGR-CMK) is given as “binds”.

B14: BIIB-9-564 (antibody, V domains shown)
VH: QVQLQESGPGLVKPSETLSLTCAVSGYSISSGYYWAWIRQPPGKGLEWIGSIYHSGSTYYNPSLKSRVTISVDTSKNQFSLKLSSVTAADTAVYYCARDPGYSWEYFDYWGQGTLVTVSS
VL: DIQMTQSPSSLSASVGDRVTITCRASQSISSYLNWYQQKPGKAPKLLIYAASSLQSGVPSRFSGSGSGTDFTLTISSLQPEDFATYYCQQSVAVPPTFGGGTKVEIK
notes: IgG; also called BIB-4-564
As for B14, in the assay with FIXa-SM (FIXa+EGR-CMK), the binding result is given as “binds”.

B15: BIIB-9-408 (antibody, V domains shown)
VH: QVQLVQSGAEVKKPGASVKVSCKASGYTFTSYYMHWVRQAPGQGLEWMGIINPSGGSTTYAQKFQGRVTMTRDTSTSTVYMELSSLRSEDTAVYYCARDPGAYDDWSGYDDYGMDVWGQGTTVTVSS
VL: EIVLTQSPATLSLSPGERATLSCRASQSVSSYLAWYQQKPGQAPRLLIYDASNRATGIPARFSGSGSGTDFTLTISSLEPEDFAVYYCQQAFVWPPITFGGGTKVEIK
notes: IgG
With B15, the binding result in assay [1] is “binds”.

B16: BIIB-9-573 (antibody, V domains shown)
VH: QLQLQESGPGLVKPSETLSLTCTVSGGSISSSSYYWGWIRQPPGKGLEWIGSIYYSGSTYYNPSLKSRVTISVDTSKNQFSLKLSSVTAADTAVYYCARESKTKGYLDLWGRGTLVTVSS
VL: EIVLTQSPGTLSLSPGERATLSCRASQSVSSSFLAWYQQKPGQAPRLLIYGASSRATGIPDRFSGSGSGTDFTLTISRLEPEDFAVYYCQQSHSPPYTFGGGTKVEIK
notes: IgG
Regarding B16, the binding result with FIXa-SM (FIXa+EGR-CMK) was “binds”.
